For one molecule, koff, kon and Kd results are on record in US20260055211A1 (GLYCOERA, published 2026).

The target of experiment [1] is T1, recombinant anti-PR3 antibody CLB12.8.
T1 construct: Mouse monoclonal anti-PR3 antibody (detected with anti-mouse IgG); recombinant form used in SPR; also called anti-PR3 antibody clone CLB12.8; anti-PR3 mouse antibody
The experiment in a line: SPR (Biacore 8K), single cycle kinetics, CLB12.8 immobilized, m1 as analyte, 1:1 binding model. An excerpt:
(§1) Methods: Surface plasmon resonance (SPR) was used to measure binding kinetics (i.e., ka, kd, KD, equilibrium) of the PR3 glycoengineered polypeptide analyte to a recombinant CLB12.8 ligand (anti-PR3 antibody) or a biotinylated recombinant human ASGPR1 ligand (Acro Biosystems). Data was collected with a Biocore 8K. Either recombinant CLB12.8 or ASGPR1 was immobilized to the surface of a sensor chip and sequential injections of increasing concentrations of the PR3 glycoengineered polypeptide were performed in a single cycle kinetics experiment. ASGPR1 assays included 2 mM CaCl2 in the running buffer. Data were fit with a 1:1 binding model for CLB12.8 and with a heterogenous binding model for ASGPR1 using the fitting software provided by Cytiva.
A general note: SPR reads the build-up and loss of mass on a sensor chip optically.

The target is the same in experiment [2]. Briefly: SPR (Biacore 8K), single cycle kinetics, CLB12.8 immobilized, kinetic (pre-steady state) fit, 1:1 binding model.
Text: as §1

For experiment [3], the target named is T2, biotinylated recombinant human ASGPR1 (Acro Biosystems) (human, UniProt P07306 62-291, biotinylated).
T2 construct: Bought reagent
T2 sequence (looked up): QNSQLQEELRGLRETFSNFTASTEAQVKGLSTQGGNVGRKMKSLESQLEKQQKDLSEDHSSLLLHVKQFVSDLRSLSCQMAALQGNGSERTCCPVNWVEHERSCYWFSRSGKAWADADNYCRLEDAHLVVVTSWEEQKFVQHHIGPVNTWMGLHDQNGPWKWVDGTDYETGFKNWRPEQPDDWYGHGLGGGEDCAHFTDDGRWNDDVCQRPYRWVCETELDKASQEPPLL
The experiment in a line: SPR (Biacore 8K), single cycle kinetics, ASGPR1 immobilized, 2 mM CaCl2, heterogeneous binding model; column kd2 (second component).
Text: as §1

The target in experiment [4] is T2, biotinylated recombinant human ASGPR1 …. The experiment in a line: SPR (Biacore 8K), single cycle kinetics, biotinylated ASGPR1 immobilized, 2 mM CaCl2, heterogenous binding model, KD2; pre-steady state KD2 (kinetic fit, second site).
Text: as §1

Experiment [5] shares this target. Briefly: SPR (Biacore 8K), single cycle kinetics, biotinylated ASGPR1 immobilized, 2 mM CaCl2, heterogenous binding model, KD1; pre-steady state KD1 (kinetic fit, first site).
Text: as §1

Experiment [6] shares this target. Briefly: SPR (Biacore 8K), single cycle kinetics, ASGPR1 immobilized, 2 mM CaCl2, heterogeneous binding model; column ka2 (second component).
Text: as §1

The target of experiment [7] is T1, recombinant anti-PR3 antibody CLB12.8. The experiment in a line: SPR (Biacore 8K), single cycle kinetics, CLB12.8 immobilized, steady state fit.
Text: as §1

In experiment [8] the target is T2, biotinylated recombinant human ASGPR1 …. Briefly: SPR (Biacore 8K), single cycle kinetics, biotinylated ASGPR1 immobilized, m1 as analyte, 2 mM CaCl2, heterogenous binding model; kd1, first component of the heterogenous binding model.
Text: as §1

Experiment [9] shares this target. The experiment in a line: SPR (Biacore 8K), single cycle kinetics, biotinylated ASGPR1 immobilized, m1 as analyte, 2 mM CaCl2, heterogenous binding model; ka1, first component of the heterogenous binding model.
Text: as §1

For experiment [10] the target is unchanged. The experiment in a line: SPR (Biacore 8K), single cycle kinetics, biotinylated ASGPR1 immobilized, 2 mM CaCl2, steady state fit; steady state KD (equilibrium fit).
Text: as §1

B1: PR3 glycoengineered polypeptide (other)
chain: IVGGHEAQPHSRPYMASLQMRGNPGSHFCGGTLIHPSFVLTAAHCLRDIPQRLVNVVLGAHNVRTQEPTQQHFSVAQVFLNNYDAENKLNDVLLIQLSSPANLSASVATVQLPQQDQPVPHGTQCLAMGWGRVGAHDPPAQVLQELNVTVVTAACRPHNICTFVPRRKAGICFGDAGGPLICDGIIQGIDSFVIWGCATRAAPDFFTRVALYVDWIRSTLRRVEAKGRPGGGGANSTAPAPAPAHHHHHHHHHH
modifications: N-glycans (81.5% A2GalNAc2, biantennary GalNAc-terminated) at the native sites N129 and N174 (numbering of UniProt P24158) and at the Asn of the C-terminal glycotag; 80-90% of molecules fully …
notes: Secreted from glycoengineered Leishmania tarentolae (cell line stCGP05880) and purified by IMAC; also called exemplary PR3 glycoengineered polypeptide; glycoengineered polypeptide of PR3
The term koff denotes the first-order rate constant of dissociation. For orientation: kon means a measure of how fast the partners come together. As a reminder, the Kd is a measure of binding affinity in units of concentration. Consider B1, for which the results for the dissociation rate constant (koff) in [1], in [3] and in [8] were 0.0754 s⁻¹, 6.16e-05 s⁻¹ and 7.54 s⁻¹, respectively. Further, the results for the kon in experiment [1], in experiment [6] and in [9] were 305000 M⁻¹ s⁻¹, 873 M⁻¹ s⁻¹ and 1.61e+08 M⁻¹ s⁻¹, respectively. For the same molecule, the dissociation constant Kd in experiment [2] came to 24.7 nM; in experiment [4], 70.6 nM; in experiment [5], 46.9 nM; in experiment [7], 32.4 nM; in [10] it was 364 nM.
